US20260116991A1 (HAINAN SIMCERE ZAIMING PHARMACEUTICAL, published 2026)
Substitutions are numbered along the chain they refer to.

B1: hAb003LH1L1 (antibody, human IgG1, V domains shown)
VH: EVQLVQSGAEVKKPGSSVKVSCKASGYTFSDYEMHWVRQAPGQGLEWMGTIDPETGNTAYTQKFMDRVTITADKSTSTAYMELSSLRSEDTAVYYCTRGYSFTYWGQGTLVTVSS
VL: DIVMTQTPLSLPVTPGEPASISCRSSQNIVHSNGNTYLQWYLQKPGQSPQLLIFKVSNRFSGVPDRFSGSGSGTDFTLKISRVEAEDVGVYYCFQGSHVPFTFGQGTKLEIK
notes: Humanized F2.154.1
B2: hAb003LH2L1b (antibody, human IgG1, V domains shown)
VH: B1 VH with T28R, S30T
VL: B1 VL with G34R
notes: Humanized F2.154.1
B3: hAb006LH2L1 (antibody, human IgG1, V domains shown)
VH: B1 VH with S30T, M34I, T50A, E54K, T61N, D66G, G99Y, Y100F, T103A
VL: B1 VL with N28T, I29F, F54Y, F101Y
notes: Humanized F3.38.7
B4: hAb001H1aL1 (antibody, human IgG1, V domains shown)
VH: EVQLVESGGGLVQPGGSLRLSCAASGFSFNTNAMNWVRQAPGKGLEWVGRIRSKSNNYATYYADSVKGRFTISRDDSKNSLYLQMNSLKTEDTAVYYCVRDGYYVLFAYWGQGTLVTVSS
VL: B1 VL with S25F, N28S, H31N, Q39E, Y41F, F54Y
notes: Humanized F2.169.2
B5: hAb006LH2L1b (antibody, human IgG1, V domains shown)
VH: B1 VH with S30T, M34I, T50A, E54K, T61N, D66G, G99Y, Y100F, T103A
VL: B1 VL with N28T, I29F, G34A, F54Y, F101Y
notes: Humanized F3.38.7
B6: hAb001H2L1b (antibody, human IgG1, V domains shown)
VH: B4 VH with G68D, N79S
VL: B1 VL with S25F, N28S, H31N, G34A, Q39E, Y41F, F54Y
notes: Humanized F2.169.2
B7: hAb001H1aL1b (antibody, human IgG1, V domains shown)
VH: B4 VH
VL: B1 VL with S25F, N28S, H31N, G34A, Q39E, Y41F, F54Y
notes: Humanized F2.169.2
B8: hAb006LH3L1b (antibody, human IgG1, V domains shown)
VH: B1 VH with S30T, M34I, T50A, E54K, T61N, D66G, I70L, G99Y, Y100F, T103A
VL: B1 VL with N28T, I29F, G34A, F54Y, F101Y
notes: Humanized F3.38.7
B9: hAb005LH1L1b (antibody, human IgG1, V domains shown)
VH: EVQLVQSGAEVKKPGASVKVSCKASGYTFTDYEMHWVRQAPGQGLEWMGAIDPETGNTAYIQKFKGRVTMTTDKSTSTAYMELRSLRSDDTAVYYCTRFYSYSHWGQGTTVTVSS
VL: DIVMTQTPLSLPVTPGEPASISCRSSQSLVHSNRNTYLHWYLQKPGQSPQLLIYKVSNRFSGVPDRFSGSGSGTDFTLKISRVEAEDVGVYYCSQNTHVPPTFGGGTKVEIK
notes: Humanized F3.54.12
B10: hAb005LH2L1b (antibody, human IgG1, V domains shown)
VH: B9 VH with M70L
VL: B9 VL
notes: Humanized F3.54.12

Target: T1, monkey GPC3 on HEK293T-monkey GPC3 cells (monkey)
T1 construct: whole, on cells
Experiment: FACS on HEK293T-monkey GPC3 cells

Binder | EC50 [nM] | Max MFI [MFI]
B1 | 1.56 | 28200
B2 | 0.793 | 31100
B3 | 1.65 | 32800
B4 | 1 | 34000
B5 | 1.83 | 31500
B6 | 1.41 | 33100
B7 | 0.96 | 32600
B8 | 1.78 | 32500
B9 | 2.62 | 24300
B10 | 2.42 | 22800

Target: T2, human GPC3-His protein (human, UniProt P51654 25-559, limits assumed)
T2 construct: also called human GPC3 protein; not shown: His tag
Experiment: SPR, antibody captured on Protein A chip, human GPC3-His injected, 1:1 Langmuir model;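 also: flow cell at 25 °C, antigen injected for 240 s at five twofold dilutions starting at 200 nM, dissociation followed up to 600 s, double-referenced sensorgrams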

Binder | Kd [nM] | koff [s⁻¹] | kon [M⁻¹ s⁻¹]
B1 | 1.93 | 0.000453 | 234000
B2 | 2.08 | 0.000501 | 240000
B3 | 4.3 | 0.000678 | 158000
B4 | 27 | 0.0701 | 2.6e+06
B5 | 9.28 | 0.00128 | 138000
B6 | 19.2 | 0.0101 | 526000
B7 | 109 | 0.0167 | 153000
B8 | 8.4 | 0.00136 | 162000
B9 | 8.49 | 0.00231 | 272000
B10 | 7.85 | 0.00213 | 271000
